Patent publication US9766250B2, “Method for detecting protein-protein interaction” (MEDICAL & BIOLOGICAL LABORATORIES CO., LTD., priority 2011, dated 2017)

B1: DsRed2: fluorescent protein capable of homotetramerization, SEQ ID NO: 153 (protein)
chain: MASSENVITEFMRFKVRMEGTVNGHEFEIEGEGEGRPYEGHNTVKLKVTKGGPLPFAWDILSPQFQYGSKVYVKHPADIPDYKKLSFPEGFKWERVMNFEDGGVATVTQDSSLQDGCFIYKVKFIGVNFPSDGPVMQKKTMGWEASTERLYPRDGVLKGETHKALKLKDGGHYLVEFKSIYMAKKPVQLPGYYYVDAKLDITSHNEDYTIVEQYERTEGRHHLFL
modifications: Synthetic sequence DsRed2
B2: monomeric Kikume Green-Red1 (protein)
chain: MVSVITSEMKIELRMEGSVNGHKFVITGKGSGRPYEGTQTVDLTVIEGGPLPFAFDILTTAFHYGNRVFVEYPEEIVDYFKQSFPEGYSWERSMSYEDGGICLATNNITMKKDGSNTFVNEIRFDGTNFPANGPVMQRKTVKWEPSTEKMYVRDGVLKGDVEMALLLEGGGHYRCDFRTTYKAKKVVQLPDYHYVDHQMEITSHDKDYNKVKAYEHAKAYSGTYRGAKYEFEA
modifications: Synthetic sequence mKikGR1

Assays:
[1] = biological target: T1, mTOR(FRB) and FKBP12 interaction (Homo sapiens, UniProt P42345+P62942); assay: Degree of fluorescent focus (assembly) formation after rapamycin with TFG(PB1) (Example 9, Table 2); assay type: cell-based; settings: fluorescent protein fused to mTOR(FRB), KO1 and dAG (AB) in 293T cells
T1 construct: region having the 2025th to 2114th amino acids of the mTOR protein; expressed in transfected cells; host or cells: HeLaS3; 293T for some combinations with FKBP12-Tankyrase(SAM)
T1 sequence (P42345 2025-2114): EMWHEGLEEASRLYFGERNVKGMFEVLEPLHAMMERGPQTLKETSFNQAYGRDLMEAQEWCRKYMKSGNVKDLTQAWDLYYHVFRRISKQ
T1 sequence (P62942 whole entry, the tested form may be a part): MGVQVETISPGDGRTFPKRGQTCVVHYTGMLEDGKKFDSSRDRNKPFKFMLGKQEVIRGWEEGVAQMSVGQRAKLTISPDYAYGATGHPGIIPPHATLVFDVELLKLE

[2] = biological target: T1, mTOR(FRB) and FKBP12 interaction; assay: Degree of fluorescent focus (assembly) formation after rapamycin, fluorescent proteins fused to mTOR(FRB) (Example 8, Table 1); assay type: cell-based; settings: fluorescent protein fused to mTOR(FRB); for degree of fluorescent focus formation, DGKd (SAM): with FKBP12-DGKd(SAM); for degree of fluorescent focus formation, TEL (SAM): with FKBP12-TEL(SAM); for degree of fluorescent focus formation, Tankyrase (SAM): with FKBP12-Tankyrase(SAM), some combinations in 293T cells; for degree of fluorescent focus formation, P62 (PB1): with p62(PB1)-FKBP12
Procedure: Note that plasmid DNAs encoding fusion proteins composed of mTOR(FRB) and the corresponding fluorescent proteins were prepared as appropriate by the same method as that described in Example 2. Moreover, regarding the combinations of FKBP12-Tankyrase(SAM) with mKO2, mKeima, mMiCy1, mKO1, MiCy1, and TGuv, the test was conducted by introducing the genes into 293T cells. Specifically, the 293T cells were cultured in DMEM High glucose (manufactured by SIGMA ALDRICH CO.) containing 10% FBS (manufactured by Equitech-Bio Inc.). Moreover, the 293T cells were seeded onto an 8-well chamber (manufactured by Nunc A/S) 6 hours before the plasmid DNAs were introduced. Further, at the time of the transfection, 200 ng of the plasmid DNA encoding FKBP12-Tankyrase(SAM) and 200 ng of one of the plasmid DNAs encoding fusion proteins composed of the fluorescent proteins and mTOR(FRB) were diluted with 30 μl of OptiMEM (manufactured by Life Technologies Corporation), and 1.2 μl of TurboFect Transfection Reagent (manufactured by Thermo Fisher Scientific Inc.) was added thereto and stirred. Then, the resultant was further mixed with 300 μl of the culture solution, subsequently added to the 293T cells, and observed 48 hours later.

Row | Molecule | degree of fluorescent focus formation, TFG (PB1) [1] | degree of fluorescent focus formation, DGKd (SAM) [2] | degree of fluorescent focus formation, TEL (SAM) [2] | degree of fluorescent focus formation, Tankyrase (SAM) [2] | degree of fluorescent focus formation, P62 (PB1) [2]
1 | B1 | ++ (fluorescent foci were observed in 50% or less of the HeLaS3 cells) | +++ (fluorescent foci were observed in 50% or more of the HeLaS3 cells) | +++ (fluorescent foci were observed in 50% or more of the HeLaS3 cells) | +++ (fluorescent foci were observed in 50% or more of the HeLaS3 cells) | +++ (fluorescent foci were observed in 50% or more of the HeLaS3 cells)
2 | B2 | ++ (fluorescent foci were observed in 50% or less of the HeLaS3 cells) | +++ (fluorescent foci were observed in 50% or more of the HeLaS3 cells) | +++ (fluorescent foci were observed in 50% or more of the HeLaS3 cells) | +++ (fluorescent foci were observed in 50% or more of the HeLaS3 cells) | +++ (fluorescent foci were observed in 50% or more of the HeLaS3 cells)
